# Source: paper PMC10160106, “Symport and antiport mechanisms of human glutamate transporters” (Nature Communications, 2023)
# B1: MinCys EAAT3 K269C/W441C crosslinked using Hg2+ (EAAT3-X) (natural protein, human, UniProt P43005 1-524, looked up)
# chain: MGKPARKGAEWKRFLKNNWVLLSTVAAVVLGITTGVLVREHSNLSTLEKFYFAFPGEILMRMLKLIILPLIISSMITGVAALDSNVSGKIGLRAVVYYFATTLIAVILGIVLVVSIKPGVTQKVGEIARTGSTPEVSTVDAMLDLIRNMFPENLVQAAFQQYKTKREEVKPPSDPEMTMTEESFTAVMTTAISKTKTKEYKIVGMYSDGINVLGLIVFALVFGLVIGKMGEKGQILVDFFNALSDATMKIVQIIMWYMPLGILFLIAGCIIEVEDWEIFRKLGLYMATVLTGLAIHSIVILPLIYFIVVRKNPFRFAMGMAQALLTALMISSSSATLPVTFRCAEENNQVDKRITRFVLPVGATINMDGTALYEAVAAVFIAQLNDLDLGIGQIITISITATSASIGAAGVPQAGLVTMVIVLSAVGLPAEDVTLIIAVDCLLDRFRTMVNVLGDAFGTGIVEKLSKKELEQMDVSSEVNIVNPFALESTILDNEDSDTKKSYVNGGFAVDKSDTISFTQTSQF
# modifications: Hg2+ crosslink between C269 and C441
# notes: Homotrimer; also called crosslinked EAAT3-X; MiniCys EAAT3 K269C/W441C; source: HEK 293F, transfected, purified (Strep-Tactin, SEC in GDN), crosslinked with HgCl2; not shown: Strep-II, N-terminal, cleaved; GFP, N-terminal, cleaved
# Target: the molecule itself
# Assay: cryo-EM structure; EAAT3-X in 0.01% GDN, 20 mM HEPES-Tris pH 7.4, in 200 mM NaCl and 20 mM L-glutamate, 300 mM KCl, 150 mM NMDG chloride or 300 mM NaCl; maps refined with C3 symmetry, then symmetry expansion and local classification of protomers
protein,measurement,value
B1,stoichiometry N,3
